T1: GST-OsEIL1N (Oryza sativa, UniProt Q10M41 1-350)
T1 sequence: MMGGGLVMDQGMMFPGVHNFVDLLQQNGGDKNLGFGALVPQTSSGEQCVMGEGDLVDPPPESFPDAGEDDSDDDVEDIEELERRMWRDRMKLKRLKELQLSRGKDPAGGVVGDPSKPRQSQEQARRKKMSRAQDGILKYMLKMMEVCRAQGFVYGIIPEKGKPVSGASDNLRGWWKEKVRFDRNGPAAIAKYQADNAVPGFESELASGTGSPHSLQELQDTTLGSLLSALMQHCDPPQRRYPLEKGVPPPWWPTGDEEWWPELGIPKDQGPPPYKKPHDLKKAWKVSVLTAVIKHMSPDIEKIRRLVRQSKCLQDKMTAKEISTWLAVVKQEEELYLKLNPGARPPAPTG

B1: OsERF115 probe 3 (EBS3) (dsDNA)
DNA 1: GATAGAACTACGTATGCACGGACCGGCTCATCACTAGAGGAG
DNA 2: CTCCTCTAGTGATGAGCCGGTCCGTGCATACGTAGTTCTATC
B2: OsERF115 probe 1 (EBS1) (dsDNA)
DNA 1: CATAACTTTTCAGTCACATCATCTCCAATTTCAACCAAAATCCAAAC
DNA 2: GTTTGGATTTTGGTTGAAATTGGAGATGATGTGACTGAAAAGTTATG
B3: OsERF115 probe 2 (EBS2) (dsDNA)
DNA 1: ATATGGCTAGAAACATAAATGTAGCTACTTTCTCTGTGCACGA
DNA 2: TCGTGCACAGAGAAAGTAGCTACATTTATGTTTCTAGCCATAT

This note sets out measurements from paper PMC9342608, “The OsEIL1‐OsERF115‐target gene regulatory module controls grain size and weight in rice”.

This data set deals with T1, GST-OsEIL1N. The data set is described as follows: EMSA; EMSA/Gel-Shift Binding Buffer (Beyotime GS005), 30 min at room temperature, 6% native PAGE; salt and pH not stated. As to conditions: protein: recombinant; tags: GST (N-terminal, pGEX-4T); label: 5' biotin on strand 1; blunt. A general note: A gel shift assay detects complexes by their altered migration in electrophoresis.
As to B1, the binding result is reported as “binds”.
Consider B2, for which the binding result is on record as “binds”.
As to B3, the binding result is “binds”.
